Tests used:
Assay in all cases: IEDB peptide-MHC binding, purified MHC/competitive/radioactivity; filed as Kd, often an IC50 or EC50 that approximates it; ≥ and ≤ were set here for values at or beyond the usual limits of such assays
[1] = molecular target: HLA-A*31:01
[2] = molecular target: HLA-A*11:01
[3] = molecular target: HLA-A*68:01
[4] = molecular target: HLA-A*33:01
[5] = molecular target: HLA-A*03:01
[6] = source organism: Vaccinia virus WR
[7] = source organism: SARS coronavirus Tor2
[8] = source organism: Mammarenavirus brazilense
[9] = source organism: Dengue virus 4 Philippines/H241/1956
[10] = source organism: Mammarenavirus guanaritoense
[11] = source organism: Dengue virus 2 Jamaica/1409/1983
[12] = source organism: Dengue virus 3 Martinique/1243/1999
[13] = source organism: Dengue virus 1 Brazil/97-11/1997
[14] = source organism: Mammarenavirus juninense
[15] = source organism: Lassa virus Josiah
[16] = source organism: Mammarenavirus whitewaterense
[17] = source organism: Mammarenavirus machupoense
[18] = source organism: Dengue virus 2 Peru/IQT2913/1996

Row | Sequence | Kd [1, 6] | Kd [2, 6] | Kd [3, 6] | Kd [4, 6] | Kd [5, 6] | further results
1 | VMANNVKKK | 3910 nM | 215 nM | 6170 nM | ≥ 75200 nM | 31.8 nM | 
2 | TTGIGYQPYR |  |  |  |  |  | Kd [1, 7]: 105 nM; Kd [2, 7]: 1140 nM; Kd [3, 7]: 9.5 nM; Kd [4, 7]: 1740 nM; Kd [5, 7]: 6450 nM
3 | ELNIVDEIIK | ≥ 70000 nM | 19000 nM | 2650 nM | 13900 nM | 11800 nM | 
4 | SIYSRPKIK | 4890 nM | 6.62 nM | 398 nM | ≥ 37900 nM | 2.67 nM | 
5 | LIMFEQYFIY | 14000 nM | 134 nM | 1720 nM | 8190 nM | 1030 nM | 
6 | AFDISVNASK | 1660 nM | 1230 nM | 1040 nM | ≥ 32300 nM | 593 nM | 
7 | VIPFDDIVR | 338 nM | 9600 nM | 174 nM | 302 nM | ≥ 78000 nM | 
8 | GLVASIKNFK |  |  |  |  |  | Kd [1, 7]: 7560 nM; Kd [2, 7]: 1320 nM; Kd [3, 7]: 507 nM; Kd [4, 7]: ≥ 20600 nM; Kd [5, 7]: 630 nM
9 | MVNHSTYYV |  |  |  |  |  | Kd [1, 8]: 10.3 nM; Kd [2, 8]: 590 nM; Kd [3, 8]: 94.8 nM; Kd [4, 8]: 810 nM; Kd [5, 8]: 94.7 nM
10 | YVIRHVDGK | ≥ 77900 nM | 10.2 nM | 1.72 nM | ≥ 77700 nM | 1450 nM | 
11 | SIPPTAGILK |  |  |  |  |  | Kd [2, 9]: 16.5 nM; Kd [5, 9]: 216 nM
12 | NSFIISTLNK | 648 nM | 0.447 nM | 19.2 nM | 4460 nM | 416 nM | 
13 | NFGTIILNK | 1270 nM | 1090 nM | 508 nM | 1540 nM | 1350 nM | 
14 | KSTVKLVQR | 4.44 nM | 1420 nM | 1530 nM | 1480 nM | 16500 nM | 
15 | SAFNDDGIY | 9580 nM | 14000 nM | 1860 nM | ≥ 77700 nM | ≥ 78000 nM | 
16 | CFKEASFSK | 13 nM | 1370 nM | 1230 nM | 11.6 nM | 966 nM | 
17 | SLCFLLTQK |  |  |  |  |  | Kd [1, 7]: 231 nM; Kd [2, 7]: 22.7 nM; Kd [3, 7]: 1200 nM; Kd [4, 7]: 5560 nM; Kd [5, 7]: 25.6 nM
18 | NFEALEATK | 6740 nM | 84.5 nM | 704 nM | 1060 nM | 4210 nM | 
19 | GTSTDVVYR |  |  |  |  |  | Kd [1, 7]: 30.3 nM; Kd [2, 7]: 17.9 nM; Kd [3, 7]: 16.5 nM; Kd [4, 7]: 481 nM; Kd [5, 7]: 79.2 nM
20 | NLEMIDERK | 9460 nM | 1110 nM | 49.4 nM | ≥ 77700 nM | ≥ 70000 nM | 
21 | VTSLAIKNYY | 281 nM | 21.7 nM | 112 nM | 420 nM | 206 nM | 
22 | FTVKLGGVFH |  |  |  |  |  | Kd [1, 10]: 695 nM; Kd [3, 10]: 27.4 nM; Kd [4, 10]: 12500 nM; Kd [5, 10]: 14800 nM
23 | LINRFTMKHK |  |  |  |  |  | Kd [5, 11]: 12.5 nM
24 | VSILASSLLR |  |  |  |  |  | Kd [1, 12]: 872 nM; Kd [2, 12]: 514 nM; Kd [3, 12]: 468 nM; Kd [4, 12]: 200 nM

Row | Sequence | Kd [1, 6] | Kd [2, 6] | Kd [3, 6] | Kd [4, 6] | Kd [5, 6] | further results
25 | LSARNKLFK | 168 nM | 0.532 nM | 14.9 nM | 16100 nM | 2.21 nM | 
26 | VSIILANERY | 8590 nM | 1420 nM | 3850 nM | 19000 nM | 12800 nM | 
27 | NFDYPFFRK | 90.2 nM | 191 nM | 393 nM | 308 nM | 9090 nM | 
28 | TILLSDKGK | 7390 nM | 81.2 nM | 198 nM | ≥ 44300 nM | 1540 nM | 
29 | IFPGDKTSY | ≥ 56700 nM | 11700 nM | 17700 nM | ≥ 77700 nM | 11600 nM | 
30 | SFNMLKRAR |  |  |  |  |  | Kd [1, 13]: ≥ 34200 nM; Kd [4, 13]: 10 nM
31 | ALLRALRLTK |  |  |  |  |  | Kd [1, 7]: 233 nM; Kd [2, 7]: 24.5 nM; Kd [3, 7]: 1790 nM; Kd [4, 7]: ≥ 70000 nM; Kd [5, 7]: 3.17 nM
32 | NAISSRVDRY | 11000 nM | 18000 nM | 10700 nM | ≥ 70000 nM | ≥ 42600 nM | 
33 | LMNVITLVYK |  |  |  |  |  | Kd [1, 7]: 742 nM; Kd [2, 7]: 23.7 nM; Kd [3, 7]: 748 nM; Kd [4, 7]: 5640 nM; Kd [5, 7]: 10.6 nM
34 | SSFIMRNFLR | 1.3 nM | 8.89 nM | 13.6 nM | 870 nM | 2100 nM | 
35 | IIFLKLFKK | 5.67 nM | 4.44 nM | 13.2 nM | 4.85 nM | 8.76 nM | 
36 | DSPLTLLIK | ≥ 55600 nM | 6250 nM | 1320 nM | ≥ 77700 nM | ≥ 78000 nM | 
37 | IAQSKGLYR |  |  |  |  |  | Kd [1, 7]: 98 nM; Kd [2, 7]: 224 nM; Kd [3, 7]: 105 nM; Kd [4, 7]: 152 nM; Kd [5, 7]: 3880 nM
38 | KLTYQNKVVK |  |  |  |  |  | Kd [5, 12]: 66.1 nM
39 | AVFKDSFLR | 3.03 nM | 6.49 nM | 0.821 nM | 323 nM | 16.2 nM | 
40 | ANKQYIHCFR |  |  |  |  |  | Kd [1, 14]: 12.8 nM; Kd [2, 14]: ≥ 46600 nM; Kd [3, 14]: 9810 nM; Kd [4, 14]: 130 nM; Kd [5, 14]: 17800 nM
41 | SCPKPHRLNH |  |  |  |  |  | Kd [1, 15]: ≥ 38500 nM; Kd [2, 15]: ≥ 69700 nM; Kd [3, 15]: ≥ 70100 nM; Kd [4, 15]: ≥ 34300 nM; Kd [5, 15]: ≥ 21300 nM
42 | HAFDAPTLY | ≥ 48400 nM | 185 nM | 30.3 nM | ≥ 77700 nM | 33.9 nM | 
43 | KMLLNRFTTR |  |  |  |  |  | Kd [1, 9]: 3.77 nM
44 | VTISKDNLER | 118 nM | 13.7 nM | 62.6 nM | 357 nM | ≥ 39000 nM | 
45 | ILIKRRQQK |  |  |  |  |  | Kd ([5]; source organism: Homo sapiens): 28.9 nM
46 | FLALGFFLRK |  |  |  |  |  | Kd [5, 12]: 29.1 nM
47 | PIFSDLLKY | ≥ 56900 nM | 6540 nM | ≥ 36900 nM | ≥ 77700 nM | ≥ 29500 nM | 
48 | PVIVVPVIDR | 13200 nM | ≥ 21600 nM | 16.7 nM | 9180 nM | 4820 nM | 

Row | Sequence | Kd [1, 6] | Kd [2, 6] | Kd [3, 6] | Kd [4, 6] | Kd [5, 6] | further results
49 | SLLTNDTTWI |  |  |  |  |  | Kd [1, 16]: 17000 nM; Kd [2, 16]: ≥ 69700 nM; Kd [3, 16]: ≥ 70100 nM; Kd [4, 16]: ≥ 70000 nM; Kd [5, 16]: ≥ 70000 nM
50 | KIIAVFDSK | 126 nM | 6.68 nM | 474 nM | 7970 nM | 8.19 nM | 
51 | EWIEFTNFK |  |  |  |  |  | Kd [1, 17]: 15400 nM; Kd [2, 17]: 3290 nM; Kd [3, 17]: 4.52 nM; Kd [4, 17]: 66.7 nM; Kd [5, 17]: 9580 nM
52 | VLKIVRNMEK |  |  |  |  |  | Kd [5, 11]: 82.8 nM
53 | DFESVTNSVY | 15600 nM | ≥ 25400 nM | 11800 nM | 14800 nM | ≥ 33300 nM | 
54 | RTYSDPLALK |  |  |  |  |  | Kd [2, 12]: 36.1 nM; Kd [3, 12]: 29.3 nM; Kd [5, 12]: 3.61 nM
55 | TLDESFLGR |  |  |  |  |  | Kd [1, 7]: 841 nM; Kd [2, 7]: 669 nM; Kd [3, 7]: 947 nM; Kd [4, 7]: 1120 nM; Kd [5, 7]: 1430 nM
56 | QQLRVESSSK |  |  |  |  |  | Kd [1, 7]: 435 nM; Kd [2, 7]: 721 nM; Kd [3, 7]: 1950 nM; Kd [4, 7]: 1260 nM; Kd [5, 7]: 588 nM
57 | FLMSGRGIGK |  |  |  |  |  | Kd [2, 18]: 75.2 nM; Kd [5, 18]: 4.97 nM
58 | ISLGLILLK |  |  |  |  |  | Kd [2, 9]: 1.21 nM; Kd [5, 9]: 31.2 nM
59 | VSFLLLAGR |  |  |  |  |  | Kd ([2]; source organism: Mammarenavirus choriomeningitidis): 17.9 nM
60 | DTSEVHWNYK |  |  |  |  |  | Kd [3, 9]: 6.73 nM
61 | TSFYLISIFL |  |  |  |  |  | Kd [4, 15]: ≥ 31100 nM; Kd [5, 15]: 8080 nM
62 | DLISYGGGWR |  |  |  |  |  | Kd [4, 13]: 1390 nM
63 | WQLMYFHRR |  |  |  |  |  | Kd [1, 13]: 4410 nM
64 | SSMVNGVVK |  |  |  |  |  | Kd ([2]; source organism: Dengue virus 1 Singapore/S275/1990): 73.4 nM
65 | RMLNILNRRR |  |  |  |  |  | Kd [1, 11]: 1.6 nM
66 | TSAYLISIFL |  |  |  |  |  | Kd ([4]; source organism: Lymphocytic choriomeningitis virus (strain WE)): 2170 nM
67 | RICTREEFTR |  |  |  |  |  | Kd [1, 13]: ≥ 70000 nM
68 | TSEHGGRAYR |  |  |  |  |  | Kd [1, 12]: 72.4 nM
69 | EIWTKEGER |  |  |  |  |  | Kd [4, 11]: 47.9 nM
70 | RTLGRNKKPR |  |  |  |  |  | Kd [1, 12]: 8.39 nM

From the Immune Epitope Database (IEDB)
